The record followed here is patent EP0980526B1, “INHIBITORS OF NUCLEAR PROTEIN/NUCLEAR RECEPTOR INTERACTION” (IMPERIAL CANCER RESEARCH TECHNOLOGY LIMITED, priority 1997, dated 1998).

The target in assay [1] is AAD-ER (acidic activation domain fused to the LBD of the wild-type ER) (human) (UniProt P03372). As to the kind of experiment: cell-based or functional assay.
For assay [2] the target is unchanged. The assay is described as follows: yeast two-hybrid.
The target of assay [3] is mouse ER (expressed in transfected Hela cells) (mouse) (UniProt P19785). The assay is described as follows: cell-based or functional assay.
Sequence of mouse ER (expressed in transfected Hela cells) (mouse) (P19785 whole entry): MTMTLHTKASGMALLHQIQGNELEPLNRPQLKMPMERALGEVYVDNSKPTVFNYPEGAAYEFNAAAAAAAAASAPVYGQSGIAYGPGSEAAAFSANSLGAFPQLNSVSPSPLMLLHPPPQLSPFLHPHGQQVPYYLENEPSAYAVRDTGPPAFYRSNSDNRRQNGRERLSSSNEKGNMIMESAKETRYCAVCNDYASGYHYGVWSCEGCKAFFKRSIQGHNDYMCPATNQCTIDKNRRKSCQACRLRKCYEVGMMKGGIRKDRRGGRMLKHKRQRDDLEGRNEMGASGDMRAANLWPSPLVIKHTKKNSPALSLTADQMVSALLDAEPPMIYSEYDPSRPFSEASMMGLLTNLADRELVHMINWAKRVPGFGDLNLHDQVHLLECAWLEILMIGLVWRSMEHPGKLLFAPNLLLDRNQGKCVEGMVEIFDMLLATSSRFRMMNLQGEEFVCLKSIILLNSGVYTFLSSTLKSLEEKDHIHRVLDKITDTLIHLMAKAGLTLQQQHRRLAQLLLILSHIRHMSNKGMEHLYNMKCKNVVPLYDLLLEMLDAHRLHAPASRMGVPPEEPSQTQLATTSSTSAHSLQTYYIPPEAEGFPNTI

A value given as a limit tells only on which side of the number the result lay.

Sequence of AAD-ER (acidic activation domain fused to the LBD of the wild-type ER) (human) (P03372 282-595 limits assumed): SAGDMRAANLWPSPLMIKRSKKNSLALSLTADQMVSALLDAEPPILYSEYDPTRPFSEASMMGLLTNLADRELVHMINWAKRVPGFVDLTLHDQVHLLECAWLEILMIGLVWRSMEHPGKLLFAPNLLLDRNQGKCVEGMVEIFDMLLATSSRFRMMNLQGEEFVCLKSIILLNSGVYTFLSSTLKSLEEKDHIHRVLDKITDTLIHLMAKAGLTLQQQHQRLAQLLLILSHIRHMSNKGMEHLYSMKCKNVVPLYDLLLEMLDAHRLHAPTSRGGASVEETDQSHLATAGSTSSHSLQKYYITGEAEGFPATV
Sequence of DBD-SRC1a 45-53 (P03372 176-282, form in doubt): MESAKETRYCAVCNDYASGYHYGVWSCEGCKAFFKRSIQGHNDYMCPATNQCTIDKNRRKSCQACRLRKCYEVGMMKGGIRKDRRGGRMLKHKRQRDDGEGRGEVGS

Consider “DBD-RIP140 935-943 with valine 935 mutated to alanine (from UniProt P03372 176-282; P48552 935-943)”, for which, in assay [1], the reporter activity in the presence of ligand (β-galactosidase, yeast two hybrid) (fold reduction) is 10.

With “DBD-SRC1a 45-53 (from UniProt P03372 176-282)”, in assay [2], the fold interaction (two-hybrid reporter) amounted to 6 fold.

For the substance SRC1e M123 (from UniProt Q15788 1-1399), the activity of ER on the reporter 2ERE-pS2-CAT in transiently transfected Hela cells in assay [3] is less than 50%.
